# Laboratory results from article PMC9087419 (European Journal of Immunology, 2022).
# Substitutions are numbered along the chain they refer to.
# B1: S2H97 (antibody, V domains shown)
# VH: QVRLVQSGAEVKKSGESLKISCKGSGYSFTSYWIGWVRQMPGKGLEWMGIIYPGDSDTRYSPSFQGQVTISADKSISTVYLQWSSLKASDTAMYYCARQWSHYTYDYYYWGQGTLVTISS
# VL: QSVLTQPASVSGSPGQSITISCTGISSDVGGYNSVSWYQQHPGKAPKLMIYDVTNRPSGVSNRFSGSKSGNTASLTISGLQAEDEADYYCSSYTSSSTPPYVFGTGTKVSVL
# B2: CT‐P59 (Regdanivimab) (antibody, V domains shown)
# VH: QITLKESGPTLVKPTQTLTLTCSFSGFSLSTSGVGVGWIRQPPGKALEWLALIDWDDNKYHTTSLKTRLTISKDTSKNQVVLTMTNMDPVDTATYYCARIPGFLRYRNRYYYYGMDVWGQGTTVTVSS
# VL: ELVLTQPPSVSAAPGQKVTISCSGSSSNIGNNYVSWYQQLPGTAPKLLIYDNNKRPSGIPDRFSGSKSGTSATLGITGLQTGDEADYYCGTWDSSLSAGVFGGGTELTVL
# notes: also called Regdanvimab; Regkirona
# B3: AZD8895 (Tixagevimab) (antibody, V domains shown)
# VH: QMQLVQSGPEVKKPGTSVKVSCKASGFTFMSSAVQWVRQARGQRLEWIGWIVIGSGNTNYAQKFQERVTITRDMSTSTAYMELSSLRSEDTAVYYCAAPYCSSISCNDGFDIWGQGTMVTVSS
# VL: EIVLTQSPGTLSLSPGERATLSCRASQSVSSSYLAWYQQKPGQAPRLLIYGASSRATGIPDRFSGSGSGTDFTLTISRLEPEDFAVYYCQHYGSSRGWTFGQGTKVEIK
# B4: BMS‐986413 (C144) (antibody, V domains shown)
# VH: EVQLVESGGGLIQPGGSLRLSCAASGFTVSNNYMSWVRQAPGKGLEWVSVIYSGGSTYYADSVKGRFTISRDKSKNTLYLQMNRLRAEDTAVYYCAREGEVEGYNDFWSGYSRDRYYFDYWGQGTLVTVSS
# VL: QSALTQPASVSGSPGQSITISCTGTSSDVGGYNYVSWYQQHPGKAPKLMIYDVSNRPSGVSNRFSGSKSGNTASLTISGLQAEDEADYYCSSYTSSSTRVFGTGTKVTVL
# B5: REGN10987 (Imdevimab) (antibody, V domains shown)
# VH: QVQLVESGGGVVQPGRSLRLSCAASGFTFSNYAMYWVRQAPGKGLEWVAVISYDGSNKYYADSVKGRFTISRDNSKNTLYLQMNSLRTEDTAVYYCASGSDYGDYLLVYWGQGTLVTVSS
# VL: B4 VL with N55K, A82S, S91N, Y93L, S96I, R99W, T103G, V107L
# B6: REGN10933 (Casirivimab) (antibody, V domains shown)
# VH: QVQLVESGGGLVKPGGSLRLSCAASGFTFSDYYMSWIRQAPGKGLEWVSYITYSGSTIYYADSVKGRFTISRDNAKSSLYLQMNSLRAEDTAVYYCARDRGTTMVPFDYWGQGTLVTVSS
# VL: DIQMTQSPSSLSASVGDRVTITCQASQDITNYLNWYQQKPGKAPKLLIYAASNLETGVPSRFSGSGSGTDFTFTISGLQPEDIATYYCQQYDNLPLTFGGGTKVEIK
# B7: LY‐CoV555 (Bamlanivimab) (antibody, V domains shown)
# VH: QVQLVQSGAEVKKPGSSVKVSCKASGGTFSNYAISWVRQAPGQGLEWMGRIIPILGIANYAQKFQGRVTITADKSTSTAYMELSSLRSEDTAVYYCARGYYEARHYYYYYAMDVWGQGTAVTVSS
# VL: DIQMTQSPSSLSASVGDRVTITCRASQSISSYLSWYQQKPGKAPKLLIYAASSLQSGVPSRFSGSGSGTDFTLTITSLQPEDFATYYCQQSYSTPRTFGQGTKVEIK
# B8: 8D2 (antibody, V domains shown)
# VH: EVQLVESGGGLVQPGGSLRLSCAASGFTFSSYWMSWVRQAPGKGLEWVANINQDGSEKYYVDSVKGRFTISRDNAKNSLYLQVNSLRAEDTAVYYCARDWDYDILTGSWFGAFDIWGQGTTVTVSS
# VL: DIQMTQSPSSLSASVGDRVTITCRASQGIRNDLGWYQQKPGKAPKRLIYAASSLQSGVPSRFSGSGSGTEFTLTISSLQPEDFATYYCLQHNSYPLTFGGGTKVEIK
# B9: 3467 (antibody, V domains shown)
# VH: QVQLQESGPGLVKPSETLSLTCTVSGGSISSYHWNWIRQPPGKGLEWIGYIYYSGNTNYNPSLKSRVSISTDTSKNQFSLKLSSVTAADTAVYYCVREMRRGYSGYDYWDLYAFDIWGQGTMVTVSS
# VL: DIQLTQSPSFLSASVGDRVTITCRASQGISSYLAWYQQKPGKAPNLLIYAASTLQSGVPSRFSGSGSGTEFTLTISSLQPEDFATYYCQQLNSYPHTFGQGTKLEIK
# notes: also called TRIANNI mouse‐derived antibody 3467
# B10: LY‐CoV016 (Etesevimab) (antibody, V domains shown)
# VH: EVQLVESGGGLVQPGGSLRLSCAASGFTVSSNYMSWVRQAPGKGLEWVSVIYSGGSTFYADSVKGRFTISRDNSMNTLFLQMNSLRAEDTAVYYCARVLPMYGDYLDYWGQGTLVTVSS
# VL: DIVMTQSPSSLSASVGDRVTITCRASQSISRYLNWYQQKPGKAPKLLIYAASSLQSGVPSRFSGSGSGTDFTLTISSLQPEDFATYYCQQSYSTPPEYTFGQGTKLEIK
# B11: AZD1061 (Cilgavimab) (antibody, V domains shown)
# VH: EVQLVESGGGLVKPGGSLRLSCAASGFTFRDVWMSWVRQAPGKGLEWVGRIKSKIDGGTTDYAAPVKGRFTISRDDSKNTLYLQMNSLKTEDTAVYYCTTAGSYYYDTVGPGLPEGKFDYWGQGTLVTVSS
# VL: not shown
# B12: BMS‐986414 (C135) (antibody, V domains shown)
# VH: QVQLVESGGGVVQPGRSLRLSCAASGFTFSSYAMHWVRQAPGKGLEWVAVIPFDGRNKYYADSVTGRFTISRDNSKNTLYLQMNSLRAEDTAVYYCASSSGYLFHSDYWGQGTLVTVSS
# VL: DIQMTQSPSTLSASVGDRVTITCRASQSISNWLAWFQQKPGKAPKLLIYEASSLESGVPSRFSGSGSGTEFTLTISSLQPDDFATYYCQQYNSYPWTFGQGTKVEIK
# Molecular target: T1, SARS‐CoV‐2 spike membrane protein of the Wuhan‐Hu‐1 strain (SARS-CoV-2 Wuhan-Hu-1 (QHD43416.1), UniProt P0DTC2)
# T1 construct: source: HEK293, transiently cotransfected (PEI) with a GFP plasmid, on the cell surface
# Assay: flow cytometry on cells
# Conditions: one partner purified
row,Binder,MdFI
1,B1,58000
2,B2,131000
3,B3,250000
4,B4,340000
5,B5,371000
6,B6,236000
7,B7,355000
8,B8,37000
9,B9,165000
10,B10,282000

# Molecular target: T2, SARS‐CoV‐2 spike membrane protein of the Delta variant (B.1.617.2) (SARS-CoV-2, Delta variant B.1.617.2, strain)
# T2 construct: also called Delta spike protein
# Assay: flow cytometry on cells
# Conditions: one partner purified
row,Binder,MdFI
1,B1,74000
2,B11,468000
3,B2,233000
4,B3,59000
5,B4,408000
6,B5,471000
7,B6,148000
8,B7,40000
9,B12,666000
10,B9,31000
11,B10,192000

# Molecular target: T3, SARS‐CoV‐2 spike membrane protein of the Omicron variant (B.1.1.529) (SARS-CoV-2, Omicron variant B.1.1.529, …, strain)
# T3 construct: also called Omicron spike protein
# Assay: flow cytometry on cells
# Conditions: one partner purified
row,Binder,MdFI
1,B1,296000
2,B11,101000
3,B3,73000
4,B6,103000
5,B9,25000
